Measurements: publication PMC4957052 (The Journal of Biological Chemistry, 2016)

Molecular target: T1, M. musculus αT-catenin (wild type, full length) (M. musculus, UniProt Q65CL1 1-895)
T1 construct: Cloned into pGEX-TEV; cleaved from GST with tobacco etch virus protease; also called αT (testes)-catenin; WT αT-catenin; source: E. coli BL21(DE3), purified (glutathione-agarose, TEV cleavage, Mono Q, S200 gel filtration)
T1 sequence (looked up): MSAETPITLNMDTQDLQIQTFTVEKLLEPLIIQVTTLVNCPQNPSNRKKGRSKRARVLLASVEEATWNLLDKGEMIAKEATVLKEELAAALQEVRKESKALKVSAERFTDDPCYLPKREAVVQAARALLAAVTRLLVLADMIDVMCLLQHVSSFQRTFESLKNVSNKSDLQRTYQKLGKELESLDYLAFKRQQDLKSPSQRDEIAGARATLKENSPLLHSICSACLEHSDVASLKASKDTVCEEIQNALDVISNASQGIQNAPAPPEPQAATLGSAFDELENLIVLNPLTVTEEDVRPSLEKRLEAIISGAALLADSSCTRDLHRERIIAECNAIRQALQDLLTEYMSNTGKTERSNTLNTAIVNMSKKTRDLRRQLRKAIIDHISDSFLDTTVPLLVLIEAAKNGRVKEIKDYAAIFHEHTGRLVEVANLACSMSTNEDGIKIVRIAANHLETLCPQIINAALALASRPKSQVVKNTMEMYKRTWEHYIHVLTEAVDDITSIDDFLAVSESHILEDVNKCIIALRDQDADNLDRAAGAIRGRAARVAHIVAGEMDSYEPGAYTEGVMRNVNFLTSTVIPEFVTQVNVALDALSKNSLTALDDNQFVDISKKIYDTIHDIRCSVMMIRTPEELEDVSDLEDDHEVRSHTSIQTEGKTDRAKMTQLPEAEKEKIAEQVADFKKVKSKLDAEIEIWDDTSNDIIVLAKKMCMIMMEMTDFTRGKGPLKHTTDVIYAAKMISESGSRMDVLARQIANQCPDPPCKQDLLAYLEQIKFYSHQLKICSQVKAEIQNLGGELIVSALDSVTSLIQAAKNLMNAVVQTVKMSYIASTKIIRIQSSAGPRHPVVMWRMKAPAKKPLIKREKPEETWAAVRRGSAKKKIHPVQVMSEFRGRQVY
Experiment: pull-down; 1-15 μg αT-catenin or V94D added to 15 μg GST-β-catenin on glutathione-agarose in 20 mM Tris pH 8, 150 mM NaCl, 5 mM DTT; >2 h at 4 °C (legend: 1 h at room temperature); five washes in PBS + 0.05% Tween 20, 5 mM DTT; Coomassie
Details: both partners purified

binding result: binds
B1: GST-tagged full-length β-catenin (natural protein, mouse, UniProt Q02248 1-781, looked up)
chain: MATQADLMELDMAMEPDRKAAVSHWQQQSYLDSGIHSGATTTAPSLSGKGNPEEEDVDTSQVLYEWEQGFSQSFTQEQVADIDGQYAMTRAQRVRAAMFPETLDEGMQIPSTQFDAAHPTNVQRLAEPSQMLKHAVVNLINYQDDAELATRAIPELTKLLNDEDQVVVNKAAVMVHQLSKKEASRHAIMRSPQMVSAIVRTMQNTNDVETARCTAGTLHNLSHHREGLLAIFKSGGIPALVKMLGSPVDSVLFYAITTLHNLLLHQEGAKMAVRLAGGLQKMVALLNKTNVKFLAITTDCLQILAYGNQESKLIILASGGPQALVNIMRTYTYEKLLWTTSRVLKVLSVCSSNKPAIVEAGGMQALGLHLTDPSQRLVQNCLWTLRNLSDAATKQEGMEGLLGTLVQLLGSDDINVVTCAAGILSNLTCNNYKNKMMVCQVGGIEALVRTVLRAGDREDITEPAICALRHLTSRHQEAEMAQNAVRLHYGLPVVVKLLHPPSHWPLIKATVGLIRNLALCPANHAPLREQGAIPRLVQLLVRAHQDTQRRTSMGGTQQQFVEGVRMEEIVEGCTGALHILARDVHNRIVIRGLNTIPLFVQLLYSPIENIQRVAAGVLCELAQDKEAAEAIEAEGATAPLTELLHSRNEGVATYAAAVLFRMSEDKPQDYKKRLSVELTSSLFRTEPMAWNETADLGLDIGAQGEALGYRQDDPSYRSFHSGGYGQDALGMDPMMEHEMGGHHPGADYPVDGLPDLGHAQDLMDGLPPGDSNQLAWFDTDL
notes: β-catenin, full length; also called GST-β-catenin; GST-tagged β-catenin
